Like-named read-outs stand apart in the source and are kept apart here. One block for each molecule: values may come before it.
Legend:
[1] = molecular target: RanGAP1-SUMO1/UBC9 (human) (UniProt P46060)
[2] = molecular target: RanGAP1-SUMO1/UBC9 (human) (UniProt P46060); remark: listed apart in the source
[3] = molecular target: UBC9 (human, UniProt P63279); test: crystal structure
Sequence of UBC9 (P63279 whole entry): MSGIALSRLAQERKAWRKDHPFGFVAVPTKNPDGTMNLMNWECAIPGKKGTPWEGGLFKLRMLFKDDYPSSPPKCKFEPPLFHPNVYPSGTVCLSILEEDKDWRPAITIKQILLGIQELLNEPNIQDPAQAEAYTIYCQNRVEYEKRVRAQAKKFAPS

Sequence of RanGAP1-SUMO1/UBC9 (human) (P46060 419-578, chain 1 of 3): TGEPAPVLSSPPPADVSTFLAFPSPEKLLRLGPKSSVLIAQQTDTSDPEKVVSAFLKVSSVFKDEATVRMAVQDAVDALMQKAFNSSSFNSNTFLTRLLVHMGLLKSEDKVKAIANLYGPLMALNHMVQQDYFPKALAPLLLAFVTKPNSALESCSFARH
Sequence of RanGAP1-SUMO1/UBC9 (human) (P63165 18-97, chain 2 of 3, further chain): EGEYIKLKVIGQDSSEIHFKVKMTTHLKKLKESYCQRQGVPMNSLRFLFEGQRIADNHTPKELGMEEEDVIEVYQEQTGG
Sequence of RanGAP1-SUMO1/UBC9 (human) (P63279 whole entry, chain 3 of 3, further chain): as the sequence (P63279 whole entry) above

protease protection from SENP1: protection of RanGAP1-SUMO1 against that by IR1 [1]: 144 fold
Molecule: IR2SIM-IR1_(II–V) (domain or fragment)

protease protection from SENP1: protection of RanGAP1-SUMO1 against that by IR1 [2]: 16 fold
Molecule: IR1-M-IR2 (RanBP2 residues 2631–2771) (from UniProt P49792 2631-2771) (domain or fragment)

binding result [3]: binds
B1: IR1 (RanBP2 residues 2631–2695) (domain or fragment)
chain: DVLIVYELTPTAEQKALATKLKLPPTFFCYKNRPDYVSEEEEDDEDFETAVKKLNGKLYLDGSEK

From article PMC3281653 (The Journal of Biological Chemistry, 2011)
